# From patent US20250250357A1 (NANJING ZAIMING PHARMACEUTICAL, published 2025)
# Columns and labels:
# [1] = target: T1, human MSLN-hFc protein (Acro, Cat. No. MSN-H5253) (human, UniProt Q13421 296-580); assay: ELISA, coated human MSLN-hFc, antibody 1 nM
# T1 construct: bought protein; also called human MSLN full-length protein; not shown: human Fc (hFc) of the bought protein
# [2] = target: T1, human MSLN-hFc protein (Acro, Cat. No. …); assay: ELISA, coated human MSLN-hFc, antibody 10 nM
# [3] = target: T1, human MSLN-hFc protein (Acro, Cat. No. …); assay: ELISA, coated human MSLN-hFc, antibody 0.1 nM
# [4] = target: T1, human MSLN-hFc protein (Acro, Cat. No. …); assay: ELISA, coated human MSLN-hFc, antibody 100 nM
# [5] = target: T1, human MSLN-hFc protein (Acro, Cat. No. …); assay: ELISA, coated human MSLN-hFc, antibody 0.01 nM
# [6] = target: T1, human MSLN-hFc protein (Acro, Cat. No. …); assay: ELISA, coated human MSLN-hFc, antibody 0.001 nM
# [7] = target: T1, human MSLN-hFc protein (Acro, Cat. No. …); assay: ELISA, coated human MSLN-hFc, antibody 0.0001 nM
# [8] = target: T1, human MSLN-hFc protein (Acro, Cat. No. …); assay: ELISA, coated human MSLN-hFc, antibody 1 nM; remark: listed apart in the source
# [9] = target: T1, human MSLN-hFc protein (Acro, Cat. No. …); assay: ELISA, coated human MSLN-hFc, antibody 10 nM; remark: listed apart in the source
# [10] = target: T1, human MSLN-hFc protein (Acro, Cat. No. …); assay: ELISA, coated human MSLN-hFc, antibody 0.1 nM; remark: listed apart in the source
# [11] = target: T1, human MSLN-hFc protein (Acro, Cat. No. …); assay: ELISA, coated human MSLN-hFc, antibody 100 nM; remark: listed apart in the source
# [12] = target: T1, human MSLN-hFc protein (Acro, Cat. No. …); assay: ELISA, coated human MSLN-hFc, antibody 0.01 nM; remark: listed apart in the source
# [13] = target: T1, human MSLN-hFc protein (Acro, Cat. No. …); assay: ELISA, coated human MSLN-hFc, antibody 0.001 nM; remark: listed apart in the source
# [14] = target: T1, human MSLN-hFc protein (Acro, Cat. No. …); assay: ELISA, coated human MSLN-hFc, antibody 0.0001 nM; remark: listed apart in the source
# T1 sequence (Q13421 other isoform, or with tags, fused parts or gaps limits assumed): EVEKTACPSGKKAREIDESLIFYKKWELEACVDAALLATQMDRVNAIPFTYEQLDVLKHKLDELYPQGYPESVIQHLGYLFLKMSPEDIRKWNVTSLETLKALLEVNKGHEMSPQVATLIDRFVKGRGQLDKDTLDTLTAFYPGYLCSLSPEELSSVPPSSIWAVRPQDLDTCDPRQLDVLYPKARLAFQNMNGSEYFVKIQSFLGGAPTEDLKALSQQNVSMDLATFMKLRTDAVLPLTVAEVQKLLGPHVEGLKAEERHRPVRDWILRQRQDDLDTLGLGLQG
Binder,OD450 nm [1],OD450 nm [2],OD450 nm [3],OD450 nm [4],OD450 nm [5],OD450 nm [6],OD450 nm [7],OD450 nm [8],OD450 nm [9],OD450 nm [10],OD450 nm [11],OD450 nm [12],OD450 nm [13],OD450 nm [14]
"F2.39.3-H1 (scFv, not shown: small tags and cut ends, expressed as VH-(G4S)3-VL-his or VL-(G4S)3-VH-his; also called S009-F2.39.3 humanized VH1 + VL1) scFv: EVQLVQSGAEVKKPGASVKVSCKASGYTFTNYWMHWVRQAPGQGLEWMGNINPSSGDSYYNERFMSRVTMTVDKSTSTVYMELSSLRSEDTAVYYCARSGGLWLAFWGQGTLVTVSSGGGGSGGGGSGGGGSDIVMTQSPDSLAVSLGERATINCKSSQTLLNSVSQNNYLAWYQQKPGQSPKLLIYFASTRESGVPDRFSGSGSGTDFTLTISSLQAEDVAVYYCQQHYRTPYTFGGGTKVEIK",0.55,1.23,0.17,1.68,0.07,0.06,0.06,,,,,,,
"F2.39.3-H2 (scFv, not shown: small tags and cut ends, also called S009-F2.39.3 humanized VH1 + VL2) scFv: EVQLVQSGAEVKKPGASVKVSCKASGYTFTNYWMHWVRQAPGQGLEWMGNINPSSGDSYYNERFMSRVTMTVDKSTSTVYMELSSLRSEDTAVYYCARSGGLWLAFWGQGTLVTVSSGGGGSGGGGSGGGGSDIVMTQSPDSLAVSLGERATINCKSSQTLLNSVSQNNYLAWYQQKPGQSPTLLIYFASTRESGVPDRFSGSGSGTDFTLTISSLQAEDVAVYYCQQHYRTPYTFGGGTKVEIK",0.3,1.19,0.1,1.82,0.06,0.06,0.06,,,,,,,
"F2.39.3-H6 (scFv, not shown: small tags and cut ends, also called S009-F2.39.3 humanized VH2 + VL2) scFv: EVQLVQSGAEVKKPGASVKVSCKASGYTFTNYWMHWVRQAPGQGLEWMGNINPSSGDSYYNERFMSRVTMTVDKSTSTAYMELSSLRSEDTAVYYCARSGGLWLAFWGQGTLVTVSSGGGGSGGGGSGGGGSDIVMTQSPDSLAVSLGERATINCKSSQTLLNSVSQNNYLAWYQQKPGQSPTLLIYFASTRESGVPDRFSGSGSGTDFTLTISSLQAEDVAVYYCQQHYRTPYTFGGGTKVEIK",0.31,1.18,0.1,1.69,0.07,0.06,0.06,,,,,,,
"F2.39.3-H9 (scFv, not shown: small tags and cut ends, also called S009-F2.39.3 humanized VH3 + VL1) scFv: EVQLVQSGAEVKKPGASVKVSCKASGYTFTNYWMHWVRQAPGQGLEWMGNINPSSGDSYYNERFMSRVTMTVDKSTSTAYMELSSLRSEDTAVYYCARSGGLWLAFWGPGTLVTVSSGGGGSGGGGSGGGGSDIVMTQSPDSLAVSLGERATINCKSSQTLLNSVSQNNYLAWYQQKPGQSPKLLIYFASTRESGVPDRFSGSGSGTDFTLTISSLQAEDVAVYYCQQHYRTPYTFGGGTKVEIK",0.39,1.22,0.11,1.81,0.06,0.06,0.05,,,,,,,
"F2.39.3-H8 (scFv, not shown: small tags and cut ends, also called S009-F2.39.3 humanized VH2 + VL4) scFv: EVQLVQSGAEVKKPGASVKVSCKASGYTFTNYWMHWVRQAPGQGLEWMGNINPSSGDSYYNERFMSRVTMTVDKSTSTAYMELSSLRSEDTAVYYCARSGGLWLAFWGQGTLVTVSSGGGGSGGGGSGGGGSDIVMTQTPLSLSVTPGQPASISCKSSQTLLNSVSQNNYLAWYQQKPGQSPTLLVYFASTRESGVPDRFSGSGSGTDFTLKISRVEAEDVGVYYCQQHYRTPYTFGGGTKVEIK",0.31,1.17,0.1,1.95,0.06,0.06,0.05,,,,,,,
"F2.23.12-H5 (scFv, not shown: small tags and cut ends, also called S009-F2.23.12 humanized VH2 + VL1) scFv: EVQLVQSGAEVKKPGASVKVSCKASGYTFTNYWMHWVRQAPGQGLEWMGNINPSNGGPYYNERFRSRVTMTVDKSTSTAYMELSSLRSEDTAVYYCARPYYGSSYGYFDYWGQGTTVTVSSGGGGSGGGGSGGGGSDIQMTQSPSSLSASVGDRVTITCKASQDINKYIAWYQQKPGKAPKLLIHYTSELQPGVPSRFSGSGSGTDFTFTISSLQPEDIATYYCLQYANPLRTFGGGTKVEIK",,,,,,,,0.22,0.83,0.09,1.37,0.07,0.06,0.06
"F2.23.12-H1 (scFv, not shown: small tags and cut ends, also called S009-F2.23.12 humanized VH1 + VL1) scFv: EVQLVQSGAEVKKPGASVKVSCKASGYTFTNYWMHWVRQAPGQGLEWMGNINPSNGGPYYNERFRSRVTMTVDKSTSTVYMELSSLRSEDTAVYYCARPYYGSSYGYFDYWGQGTTVTVSSGGGGSGGGGSGGGGSDIQMTQSPSSLSASVGDRVTITCKASQDINKYIAWYQQKPGKAPKLLIHYTSELQPGVPSRFSGSGSGTDFTFTISSLQPEDIATYYCLQYANPLRTFGGGTKVEIK",,,,,,,,0.26,0.82,0.09,1.22,0.07,0.06,0.07
"F2.23.12-H4 (scFv, not shown: small tags and cut ends, also called S009-F2.23.12 humanized VH1 + VL4) scFv: EVQLVQSGAEVKKPGASVKVSCKASGYTFTNYWMHWVRQAPGQGLEWMGNINPSNGGPYYNERFRSRVTMTVDKSTSTVYMELSSLRSEDTAVYYCARPYYGSSYGYFDYWGQGTTVTVSSGGGGSGGGGSGGGGSDIQMTQSPSSLSASVGDRVTITCKASQDINKYIAWYQHKPGKAPKLLIHYTSELQPGVPSRFSGSGSGRDYTFTISSLQPEDIATYYCLQYANPLRTFGGGTKVEIK",,,,,,,,0.57,0.92,0.18,1.22,0.09,0.08,0.07
"F2.23.12-H8 (scFv, not shown: small tags and cut ends, also called S009-F2.23.12 humanized VH2 + VL4) scFv: EVQLVQSGAEVKKPGASVKVSCKASGYTFTNYWMHWVRQAPGQGLEWMGNINPSNGGPYYNERFRSRVTMTVDKSTSTAYMELSSLRSEDTAVYYCARPYYGSSYGYFDYWGQGTTVTVSSGGGGSGGGGSGGGGSDIQMTQSPSSLSASVGDRVTITCKASQDINKYIAWYQHKPGKAPKLLIHYTSELQPGVPSRFSGSGSGRDYTFTISSLQPEDIATYYCLQYANPLRTFGGGTKVEIK",,,,,,,,0.17,0.62,0.09,1.22,0.07,0.07,0.05
"F2.23.12-H13 (scFv, not shown: small tags and cut ends, also called S009-F2.23.12 humanized VH4 + VL1) scFv: EVQLVQSGAEVKKPGASVKVSCKASGYTFTNYWMHWVRQAPGQGLEWMGNINPSQGGPYYNERFRSRVTMTVDKSTSTAYMELSSLRSEDTAVYYCARPYYGSSYGYFDYWGQGTTVTVSSGGGGSGGGGSGGGGSDIQMTQSPSSLSASVGDRVTITCKASQDINKYIAWYQQKPGKAPKLLIHYTSELQPGVPSRFSGSGSGTDFTFTISSLQPEDIATYYCLQYANPLRTFGGGTKVEIK",,,,,,,,0.16,0.73,0.08,1.38,0.07,0.07,0.05
"F2.23.12-H16 (scFv, not shown: small tags and cut ends, also called S009-F2.23.12 humanized VH4 + VL4) scFv: EVQLVQSGAEVKKPGASVKVSCKASGYTFTNYWMHWVRQAPGQGLEWMGNINPSQGGPYYNERFRSRVTMTVDKSTSTAYMELSSLRSEDTAVYYCARPYYGSSYGYFDYWGQGTTVTVSSGGGGSGGGGSGGGGSDIQMTQSPSSLSASVGDRVTITCKASQDINKYIAWYQHKPGKAPKLLIHYTSELQPGVPSRFSGSGSGRDYTFTISSLQPEDIATYYCLQYANPLRTFGGGTKVEIK",,,,,,,,0.13,0.64,0.07,1.2,0.06,0.07,0.05
